This passage reports Kd results from publication PMC6467748.

The target of this assay is mouse-derived mAb 735 (mo735) (mouse). Put plainly: SPR.

The substance “chicken brain-derived polysialylated neural cell adhesion molecule (NCAM) (from UniProt P13590 20-711) (natural protein)” came in with a Kd of 10.2 nM.

A word on the Kd: it is the free concentration of one partner at which half of the binding sites on the other are occupied at equilibrium, for simple one-to-one binding. A lower Kd goes with tighter binding.
